Experimental data as given in patent US20020086983.

Assays:
[1] = molecular target: FLAME-1 (in vitro translated, 35S-labeled)
[2] = molecular target: FLAME-1-D341A (in vitro translated, 35S-labeled)

Row | Protein | cleavage of 35S-labeled FLAME-1 into p39 and p12 (SDS-PAGE, autoradiography) [1] | cleavage of 35S-labeled FLAME-1-D341A (SDS-PAGE, autoradiography) [2]
1 | caspase-8 (Mch5), purified recombinant (protein) SESQTLDKVYQMKSKPRGYCLIINNHNFAKAREKVPKLHSIRDRNGTHLDAGALTTTFEELHFEIKPHDDCTVEQIYEILKIYQLMDHSNMDCFICCILSHGDKGIIYGTDGQEAPIYELTSQFTGLKCPSLAGKPKVFFIQACQGDNYQKGIPVETDSEEQPYLEMDLSSPQTRYIPDEADFLLGMATVNNCVSYRNPAEGTWYIQSLCQSLRERCPRGDDILTILTEVNYEVSNKDDKKNMGKQMPQPTFTLRKKLVFPSD | in vitro translated FLAME-1 can be cleaved by several caspases including CPP32, Mch2, Mch3, Mch4, MchS and ICH-1 to generate two fragments (p39 and pl2) | a D to A mutation in this site prevents these caspases from cleaving FLAME-1
2 | caspase-3 (CPP32), purified recombinant (protein) SGISLDNSYKMDYPEMGLCIIINNKNFHKSTGMTSRSGTDVDAANLRETFRNLKYEVRNKNDLTREEIVELMRDVSKEDHSKRSSFVCVLLSHGEEGIIFGTNGPVDLKKITNFFRGDRCRSLTGKPKLFIIQACRGTELDCGIETDSGVDDDMACHKIPVEADFLYAYSTAPGYYSWRNSKDGSWFIQSLCAMLKQYADKLEFMHILTRVNRKVATEFESFSFDATFHAKKQIPCIVSMLTKELYFYH | in vitro translated FLAME-1 can be cleaved by several caspases including CPP32, Mch2, Mch3, Mch4, MchS and ICH-1 to generate two fragments (p39 and pl2) | –
3 | caspase-2 (ICH-1), purified recombinant (protein) GPVCLQVKPCTPEFYQTHFQLAYRLQSRPRGLALVLSNVHFTGEKELEFRSGGDVDHSTLVTLFKLLGYDVHVLCDQTAQEMQEKLQNFAQLPAHRVTDSCIVALLSHGVEGAIYGVDGKLLQLQEVFQLFDNANCPSLQNKPKMFFIQACRGDETDRGVDQQDGKNHAGSPGCEESDAGKEKLPKMRLPTRSDMICGYACLKGTAAMRNTKRGSWYIEALAQVFSERACDMHVADMLVKVNALIKDREGYAPGTEFHRCKEMSEYCSTLCRHLYLFPGHPPT | in vitro translated FLAME-1 can be cleaved by several caspases including CPP32, Mch2, Mch3, Mch4, MchS and ICH-1 to generate two fragments (p39 and pl2) | a D to A mutation in this site prevents these caspases from cleaving FLAME-1
4 | caspase-7 (Mch3), purified recombinant (protein) AKPDRSSFVPSLFSKKKKNVTMRSIKTTRDRVPTYQYNMNFEKLGKCIIINNKNFDKVTGMGVRNGTDKDAEALFKCFRSLGFDVIVYNDCSCAKMQDLLKKASEEDHTNAACFACILLSHGEENVIYGKDGVTPIKDLTAHFRGDRCKTLLEKPKLFFIQACRGTELDDGIQADSGPINDTDANPRYKIPVEADFLFAYSTVPGYYSWRSPGRGSWFVQALCSILEEHGKDLEIMQILTRVNDRVARHFESQSDDPHFHEKKQIPCVVSMLTKELYFSQ | in vitro translated FLAME-1 can be cleaved by several caspases including CPP32, Mch2, Mch3, Mch4, MchS and ICH-1 to generate two fragments (p39 and pl2) | –
5 | caspase-6 (Mch2), purified recombinant (protein) AFYKREMFDPAEKYKMDHRRRGIALIFNHERFFWHLTLPERRGTCADRDNLTRRFSDLGFEVKCFNDLKAEELLLKIHEVSTVSHADADCFVCVFLSHGEGNHIYAYDAKIEIQTLTGLFKGDKCHSLVGKPKIFIIQACRGNQHDVPVIPLDVVDNQTEKLDTNITEVDAASVYTLPAGADFLMCYSVAEGYYSHRETVNGSWYIQDLCEMLGKYGSSLEFTELLTLVNRKVSQRRVDFCKDPSAIGKKQVPCFASMLTKKLHFFPKSN | in vitro translated FLAME-1 can be cleaved by several caspases including CPP32, Mch2, Mch3, Mch4, MchS and ICH-1 to generate two fragments (p39 and pl2) | a D to A mutation in this site prevents these caspases from cleaving FLAME-1
6 | caspase-10 (Mch4), purified recombinant (protein) VKTFLEALPRAAVYRMNRNHRGLCVIVNNHSFTSLKDRQGTHKDAEILSHVFQWLGFTVHIHNNVTKVEMEMVLQKQKCNPAHADGDCFVFCILTHGRFGAVYSSDEALIPIREIMSHFTALQCPRLAEKPKLFFIQACQGEEIQPSVSIEADALNPEQAPTSLQDSIPAEADFLLGLATVPGYVSFRHVEEGSWYIQSLCNHLKKLVPRHEDILSILTAVNDDVSRRVDKQGTKKQMPQPAFTLRKKLVFPVPLDALSL | in vitro translated FLAME-1 can be cleaved by several caspases including CPP32, Mch2, Mch3, Mch4, MchS and ICH-1 to generate two fragments (p39 and pl2) | a D to A mutation in this site prevents these caspases from cleaving FLAME-1
